Test results as given in patent US6663869B1, “Polyoxime compounds and their preparation” (Gryphon Therapeutics, Inc., priority 1993, dated 2003).
The star is where a group is joined. aminooxyacetyl = NOCC(=O)*

Columns and labels:
[1] = storage stability as a powder at −20° C.; type: physicochemical
Protocol: Solvent was removed by vacuum centrifugation (Speed-Vac; Savant Instruments) without heating. […] Similar methods were used to prepare octa-GXL-baseplate (SEQ ID NO: 9).
The hexa-AOA-baseplate product (SEQ ID NO: 5) eluted during the isocratic elution at 5% B. The product eluted as a single peak on analytical RP-HPLC. The mass was determined by ESI-MS to be 1325.49+/−0.38 daltons as compared to the calculated mass of 1325.4 daltons. […] The storage vial was kept tightly sealed and volatile aldehydes were excluded.
Following solvent removal by vacuum centrifugation, the AOA-TCTP sample (SEQ ID NO: 4) was characterized by ESI-MS. The molecular weight of the sample was determined to be 1542.57+/−1.14 daltons, as compared to the expected value of 1541.73 daltons. The reaction yielded 120 mg AOA-TCTP from 1.3 g. AOA-polypeptidyl resin.

mouse melanoma cells = conditions: even when modified at the alpha-amino group and when linked as a homodimer (Bagutti et al. 1992); cited from earlier work
[2] = type: physicochemical; conditions: pH 7
B16-F1 melanoma cells = assay: in situ melanin assay (Bagutti 1992); type: cell-based; conditions: relative to full-length hormone
Protocol: The biological activity of MSH can be measured, for example, with an in situ melanin assay in which the peptide is tested for stimulation of B16-F1 melanoma cells (Bagutti 1992).
The binding and potency of some alpha-melanocyte stimulating hormone analog polyoximes were determined. Relative binding in the binding assay using mouse melanoma cells (Bagutti (1992)) refers to the average dissociation constant (Kd) for full-length natural hormone divided by the Kd for our oxime analog. Relative potency in the melanin assay (Bagutti (1992)) refers to the ratio of the concentrations (giving 50% of maximum effect) of full-length hormone and that of analog. Results with the analog of alpha-MSH, Nle-Asp-His-(D)Phe-Arg-Trp-Lys-amide, are provided.

| Substance | storage stability [1] | other results |
| --- | --- | --- |
| NH2OCH2CO-ELGGGPGAGSLQPLALEGSLQKR-OH (aminooxyacetyl-ELGGGPGAGSLQPLALEGSLQKR-OH; SMILES CC(C)C[C@H](NC(=O)[C@H](C)NC(=O)[C@H](CC(C)C)NC(=O)[C@@H]1CCCN1C(=O)[C@H](CCC(N)=O)NC(=O)[C@H](CC(C)C)NC(=O)[C@H](CO)NC(=O)CNC(=O)[C@H](C)NC(=O)CNC(=O)[C@@H]1CCCN1C(=O)CNC(=O)CNC(=O)CNC(=O)[C@H](CC(C)C)NC(=O)[C@H](CCC(=O)O)NC(=O)CON)C(=O)N[C@@H](CCC(=O)O)C(=O)NCC(=O)N[C@@H](CO)C(=O)N[C@@H](CC(C)C)C(=O)N[C@@H](CCC(N)=O)C(=O)N[C@@H](CCCCN)C(=O)N[C@@H](CCCNC(=N)N)C(=O)O) [AOA-Pep C COSM] | stable for at least several months | – |
| NH2OCH2CO-Lys-Leu-Glu-Glu-Gln-Arg-Pro-Glu-Arg-Val-Lys-Gly-OH (aminooxyacetyl-KLEEQRPERVKG-OH; SMILES CC(C)C[C@H](NC(=O)[C@H](CCCCN)NC(=O)CON)C(=O)N[C@@H](CCC(=O)O)C(=O)N[C@@H](CCC(=O)O)C(=O)N[C@@H](CCC(N)=O)C(=O)N[C@@H](CCCNC(=N)N)C(=O)N1CCC[C@H]1C(=O)N[C@@H](CCC(=O)O)C(=O)N[C@@H](CCCNC(=N)N)C(=O)N[C@H](C(=O)N[C@@H](CCCCN)C(=O)NCC(=O)O)C(C)C) [AOA-TCTP COSM] | stable for at least several months | – |
| Nle-Asp-His-(D-Phe)-Arg-Trp-Lys | – | binding to melanoma cells (mouse melanoma cells): binds to melanoma cells |
| OCH—CO-Gly3-[Lys(COCHO)]5-Gly-OH [hexa-GXL-baseplate] | stable for at least several weeks | – |
| Ser-TCTP precursor COSM: TCTP 12-mer peptide with added N-terminal serine, SEQ ID NO: 2 (SKLEEQRPEVKG) | stable indefinitely | – |
| acetyl-Asp-Cys-Thr-Leu-Ile-Asp-Ala-Leu-Leu-Gly-Asp-Pro-His-amide (XCTLIDALLGDPX; N-terminal acetyl, C-terminal amide) | – | oxidized to the disulfide dimer [2]: about 30% |
| control monooxime: aminooxyacetyl Nle-Asp-His-(D)Phe-Arg-Trp-Lys-amide oximated with acetaldehyde | – | relative potency (ratio of concentrations giving 50% of maximum effect of full-length hormone and analog) (B16-F1 melanoma cells): 1.78 |
